Measured values reported in article doi:10.1101/2022.11.30.518472.
One block for each substance: values may come before it.

Key:
[1] = biological target: Uso1 CCD-His6x (pET21b-Uso1 CCD-His6x), coiled-coil domain (CC + CTR) (Aspergillus nidulans); assay: AUC + other: dynamic light scattering
[2] = biological target: Bos1-GST (pET21b-Bos1-GST), cytoplasmic domain of Bos1 (Aspergillus nidulans); assay: pull-down
[3] = biological target: Uso1(E6K/G540S)-His6x, full length (pET21b-Uso1(E6K/G540S)-His6x) (Aspergillus nidulans); assay: AUC + other: dynamic light scattering
[4] = biological target: Uso1(E6K/G540S)ΔCTR-His6x (pET21b-Uso1(E6K/G540S)ΔCTR-His6x) (Aspergillus nidulans); assay: AUC + other: dynamic light scattering
[5] = biological target: Uso1-HA3, full length, native protein of Aspergillus (Aspergillus nidulans); assay: SEC
[6] = biological target: Uso1-His6x, full length (pET21b-Uso1-His6x) (Aspergillus nidulans); assay: SEC
[7] = biological target: Bet1-GST (pET21b-Bet1-GST), cytoplasmic domain of Bet1 (Aspergillus nidulans); assay: pull-down
[8] = biological target: Uso1-His6x, full length (pET21b-Uso1-His6x) (Aspergillus nidulans); assay: AUC + other: dynamic light scattering
[9] = biological target: Uso1ΔCTR-His6x (pET21b-Uso1ΔCTR-His6x) (Aspergillus nidulans); assay: AUC + other: dynamic light scattering

Substance: Uso1(E6K/G540S)-His6x, full length (pET21b-Uso1(E6K/G540S)-His6x) (natural protein)
- fold increase of the protein retained, against wild-type Uso1 [2]: 5 fold
- stoichiometry N [3]: 2

Substance: Uso1(E6K/G540S)ΔCTR-His6x (pET21b-Uso1(E6K/G540S)ΔCTR-His6x) (domain or fragment)
- stoichiometry N [4]: 2

Substance: Uso1-HA3, full length, native protein of Aspergillus (natural protein)
- stoichiometry N [5]: 2

Second part, the substance after the results:

- stoichiometry N [1]: 2
Substance: Uso1 CCD-His6x (pET21b-Uso1 CCD-His6x), coiled-coil domain (CC + CTR) (domain or fragment)

- stoichiometry N [6]: 2
- percent of the prey pulled down [7]: 70%
- stoichiometry N [8]: 2
Substance: Uso1-His6x, full length (pET21b-Uso1-His6x) (natural protein)

- stoichiometry N [9]: 2
Substance: Uso1ΔCTR-His6x (pET21b-Uso1ΔCTR-His6x) (domain or fragment)
